Measurements reported in patent publication US6652861B1, “Anti-HIV and anti-tumor peptides and truncated polypeptides of MAP30” (priority 1999, dated 2003).
Where two headings read alike, the source gives them in different places.

B1: MVF0.8: MAP30 V8 C-terminal fragment, residues 188-263 of SEQ ID NO:1 (protein, listed as Momordica charantia)
chain: NQWSALSKQIFLAQNQGGKFRNPVDLIKPTGERFQVTNVDSDVVKGNIKLLLNSRASTADENFITTMTLLGESVVN
B2: MLF0.8: MAP30 Lys-C C-terminal fragment, residues 196-263 of SEQ ID NO:1 (protein, listed as Momordica charantia)
chain: QIFLAQNQGGKFRNPVDLIKPTGERFQVTNVDSDVVKGNIKLLLNSRASTADENFITTMTLLGESVVN
B3: MVF25: MAP30 V8 fragment, 24-25 kDa, residues 1-219 of SEQ ID NO:1 (protein, listed as Momordica charantia)
chain: DVNFDLSTATAKTYTKFIEDFRATLPFSHKVYDIPLLYSTISDSRRFILLDLTSYAYETISVAIDVTNVYVVAYRTRDVSYFFKESPPEAYNILFKGTRKITLPYTGNYENLQTAAHKIRENIDLGLPALSSAITTLFYYNAQSAPSALLVLIQTTAEAARFKYIERHVAKYVATNFKPNLAIISLENQWSALSKQIFLAQNQGGKFRNPVDLIKPTGE
B4: MLF25: MAP30 Lys-C fragment, 24-25 kDa, residues 13-232 of SEQ ID NO:1 (protein, listed as Momordica charantia)
chain: TYTKFIEDFRATLPFSHKVYDIPLLYSTISDSRRFILLDLTSYAYETISVAIDVTNVYVVAYRTRDVSYFFKESPPEAYNILFKGTRKITLPYTGNYENLQTAAHKIRENIDLGLPALSSAITTLFYYNAQSAPSALLVLIQTTAEAARFKYIERHVAKYVATNFKPNLAIISLENQWSALSKQIFLAQNQGGKFRNPVDLIKPTGERFQVTNVDSDVVK
B5: MVF21: MAP30 V8 fragment, 20-21 kDa, residues 1-187 of SEQ ID NO:1 (protein, listed as Momordica charantia)
chain: DVNFDLSTATAKTYTKFIEDFRATLPFSHKVYDIPLLYSTISDSRRFILLDLTSYAYETISVAIDVTNVYVVAYRTRDVSYFFKESPPEAYNILFKGTRKITLPYTGNYENLQTAAHKIRENIDLGLPALSSAITTLFYYNAQSAPSALLVLIQTTAEAARFKYIERHVAKYVATNFKPNLAIISLE
B6: MLF21: MAP30 Lys-C fragment, 20-21 kDa, residues 13-195 of SEQ ID NO:1 (protein, listed as Momordica charantia)
chain: TYTKFIEDFRATLPFSHKVYDIPLLYSTISDSRRFILLDLTSYAYETISVAIDVTNVYVVAYRTRDVSYFFKESPPEAYNILFKGTRKITLPYTGNYENLQTAAHKIRENIDLGLPALSSAITTLFYYNAQSAPSALLVLIQTTAEAARFKYIERHVAKYVATNFKPNLAIISLENQWSALSK

Tests used:
HIV-1 integrase = target: T1, HIV-1 integrase (Human immunodeficiency virus type 1 group M subtype B, UniProt P04585); assay: HIV-integrase inhibition (3'-processing, strand transfer, disintegration); type: biochemical; conditions: strand transfer and disintegration
T1 construct: assayed by the 3′-processing reaction of HIV-1 integrase
Experimental: (§1) In FIG. 4A, the inhibition on HIV-integrase was assayed by the 3′-processing reaction of HIV-1 integrase (Lee-Huang et al., 1995). This activity was assayed by specific cleavage of the dinucleotide GT from 5′-[^32P] labeled 21-mer of the HIV-U3-LTR substrate. The effect was measured by the inhibition of the formation of labeled 19-mer product by autoradiography of urea gels. […] In FIG. 4B, topological inactivation was measured by the conversion of supercoiled HIV-LTR DNA (S) into relaxed (R) and linear (L) forms by agarose gel electrophoresis (Huang et al., 1992). Samples that cause topological inactivation show L and R and no S forms.
(§2) Anti-HIV activity was determined by inhibition on the expression of viral core protein p24 expression by RIA (Lee-Huang et al., 1990; Lee-Huang et al., 1991 and Lee-Huang et al., 1999). Anti-tumor activity was determined by the effects of the peptide fragments on the growth of human breast tumor cell line MDA-MB-231 by [^3H] thymidine incorporated (Lee-Huang et al., 1999 and Rybak et al., 1994). HIV-integrase inhibition was assayed by the three specific reactions catalyzed by the integrase, namely, 3′ processing (specific cleavage of the dinucleotide GT from the viral substrate HIV-LTR U3), strand transfer (integration) and disintegration (Lee-Huang et al., 1995). Topological inactivation was measured by the conversion of supercoiled HIV-LTR DNA to relaxed and linear forms (Huang et al., 1992). Ribosome inactivation was determined by the translation of globin message in a rabbit reticulocyte lysate system (Lee-Huang et al., 1990 and Lee-Huang et al., 1991).

[1] = tested on: endoproteinase Lys-C and Glu-C (V8); assay: Resistance to limited proteolysis with Lys-C and V8 (SDS-PAGE); conditions: Lys-C or V8, up to 24 hr
Experimental: MAP30 and GAP31 were subjected to proteolysis with sequencing grade endoproteinase Lys-C and Glu-C (Promega, Madison, Wis.). Lys-C cleaves at the carboxylic side of lysine (Elliott et al., 1986). Glu-C, also known as V8 protease, cleaves specifically at the carboxylic side of glutamic acid in the presence of ammonium ion (Drapeau et al., 1972). In the absence of ammonium ion, Glu-C acts at both aspartic and glutamic acids. The reaction buffers for Lys-C and V8 were 25 mM Tris-HCl, pH 7.8, 1 mM EDTA and 50 mM ammonium bicarbonate, pH 7.8 respectively.
FIGS. 1A-1D show time course SDS-PAGE patterns of Lys-C and V8 digestions of MAP30 and GAP31. Three major fragments were produced in each case. These fragments are designated MLF25, MLF21, MLF0.8 (MAP30 Lys-C Fragments of 25, 21, and 0.8 kDa, FIG. 1A), MVF25, MVF21, MVF0.8 (MAP30 V8 Fragments of 25, 21, and 0.8 kDa, FIG. 1B), GLF26, GLF22, GLF0.6 (GAP31 Lys-C Fragments of 26, 22 and 0.6 kDa, FIG. 1C), and GVF26, GVF22, GVF0.6 (GAP31 V8 Fragments of 26, 22 and 0.6 kDa, FIG. 1D). The smaller peptides are C-terminal fragments produced during proteolysis and they are sensitive to further digestion to short peptides.

supercoiled HIV-LTR DNA = assay: Topological inactivation: conversion of supercoiled HIV-LTR DNA to relaxed and linear forms; type: biochemical; conditions: supercoiled HIV-LTR into relaxed and linear forms
Experimental: as §1, §2

[2] = tested on: ribosome (rabbit reticulocyte lysate system); assay: Ribosome inactivation: translation of globin message in a rabbit reticulocyte lysate system; type: biochemical; conditions: [3H]-labelled leucine incorporation
Experimental: (§3) In FIG. 3A, anti-HIV activity was assayed by HIV core protein p24 expression in H9 cells (Lee-Huang et al., 1990 and Lee-Huang et al., 1991). […] Anti-tumor activity was determined by in vitro proliferation of human breast tumor MAD-MB-231 cell by [^3H] thymidine incorporation (Lee-Huang et al., 1999) and the average control value was about 1.88×10^5 cpm/ml (FIG. 3B). In FIG. 3C, the cytotoxic effect was measured by the MTS colorimetric assay (Lee-Huang et al., 1999), and in FIG. 3D, the ribosome-inactivation activity was determined by in vitro translation of globin message in a rabbit reticulocyte lysate system (Lee-Huang et al., 1990 and Lee-Huang et al., 1991) and the average control value was about 5.8×10^4 cpm/ml. In each assay, triplicates were carried in two independent experiments, and the results are normalized to values obtained in control assays. Standard deviations are indicated by error bars.
as §2
The anti-HIV and anti-tumor fragments, MLF25, MLF21, MVF25, MVF21, GLF26, GLF22, GVF26, GVF22 are active in HIV-integrase inhibition as assayed by the 3′-processing (FIG. 4A), strand transfer and disintegration (data not shown) as well as in DNA topological inactivation as assayed by the conversion of supercoiled HIV-LTR into relaxed and linear forms (FIG. 4B). […] Moreover, the C-terminal regions of these proteins are required for N-glycosidase activity, but not for antiviral and anti-tumor activities.

HIV-1 = assay: Anti-HIV activity: viral core protein p24 expression in HIV-1 infected H9 T lymphocytes by RIA; type: cell-based
Experimental: as §3, §2
(§4) To analyze the structural and activity relationship of the anti-HIV proteins, each of the homogeneous proteolytic fragments was assayed for anti-HIV and anti-tumor activities. […] Anti-HIV activity was measured by viral core protein p24 expression in HIV-1 infected H9 T lymphocytes by RIA (Lee-Huang et al., 1990 and Lee-Huang et al., 1991). Anti-tumor activity was measured by proliferation of human breast tumor MDA231 cells (Lee-Huang et al., 1999 and Rybak et al., 1994). […] No significant difference in the anti-HIV and anti-tumor activities was detected between these core fragments.

[3] = tested on: human breast tumor cell line MDA-MB-231; assay: Anti-tumor activity: proliferation of MDA-MB-231 cells by [3H] thymidine incorporation; type: cell-based; conditions: MDA231 proliferation
Experimental: as §3, §2, §4

Molecule | HIV-integrase inhibition (HIV-1 integrase) | resistance to proteolysis [1] | DNA topological inactivation (supercoiled HIV-LTR DNA) | ribosome inactivation [2] | anti-HIV activity (HIV-1) | anti-HIV activity (HIV-1; listed as peak 3) | anti-tumor activity [3] | anti-tumor activity ([3]; listed as peak 3)
GVF22: GAP31 V8 fragment, 21-22 kDa, residues 1-195 of SEQ ID NO:2 | active | remained intact even after 24 hr of proteolysis | active | none of these fragments are active |  |  |  | 
GLF0.6: GAP31 Lys-C C-terminal fragment, residues 201-251 of SEQ ID NO:2 (LSFQIRTSGANGMFSEAVELERANGKKYYVTAVDQVKPKIALLKFVDKDPK; listed as Gelonium multiflorum) |  |  |  |  | neither anti-HIV nor anti-tumor activity | no activity was found | neither anti-HIV nor anti-tumor activity | no activity was found
GLF22: GAP31 Lys-C fragment, 21-22 kDa, residues 11-200 of SEQ ID NO:2 | active |  | active | none of these fragments are active | Most of the anti-HIV and anti-tumor activity |  | Most of the anti-HIV and anti-tumor activity | 
GVF26: GAP31 V8 fragment, 25-26 kDa, residues 1-219 of SEQ ID NO:2 | active |  | active | none of these fragments are active |  |  |  | 
GVF0.6: GAP31 V8 C-terminal fragment, residues 196-251 of SEQ ID NO:2 (NKWGKLSFQIRTSGANGMFSEAVELERANGKKYYVTAVDQVKPKIALLKFVDKDPK; listed as Gelonium multiflorum) |  |  |  |  | neither anti-HIV nor anti-tumor activity |  | neither anti-HIV nor anti-tumor activity | 
B1 |  |  |  |  | neither anti-HIV nor anti-tumor activity |  | neither anti-HIV nor anti-tumor activity | 
B2 |  |  |  |  | neither anti-HIV nor anti-tumor activity |  | neither anti-HIV nor anti-tumor activity | 
B3 | active |  | active | none of these fragments are active |  |  |  | 
B4 | active | remained intact even after 24 hr of proteolysis | active | none of these fragments are active |  |  |  | 
B5 | active | remained intact even after 24 hr of proteolysis | active | none of these fragments are active |  |  |  | 
B6 | active |  | active | none of these fragments are active |  |  |  | 
